Measured values published in patent publication US20220089772A1 (published 2022).

Key:
[1] = molecular target: T1, Cynomolgus glycopeptide (biotinylated) (biotinylated; glycosylated (glycan and sites not stated)); assay: SPR; avid; apparent KD, FIG. 19B
T1 peptide: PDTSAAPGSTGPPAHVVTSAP

[2] = molecular target: T2, Human glycopeptide (biotinylated) (biotinylated; glycosylated (glycan and sites not stated)); assay: SPR; avid; apparent KD, FIG. 19A
T2 peptide: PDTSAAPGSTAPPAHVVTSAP

B1: monoclonal antibody GO2 (5F7) (antibody, V domains shown)
VH: QVQLQQSDAELVKPGASVKISCKASGYTFTDHAIHWVKQRPEQGLEWIGYFSPGNDDIHYNEKFEGKATLTADKSSSTAYMQLNSLTSEDSAVYFCKRSYDKDFDCWGQGTTLTVSS
VL: DIVMSQSPSSLGVSVGEKVTMSCKSSQSLLYSTNQKNYLAWYQQKPGQSPKLLIYWVSNRKSGVPDRFTGSGSGTDFTLTISSVKAEDLAVYYCQQYYRYPLTFGAGTKLELK
[1]
  Kd: 56 nM
[2]
  Kd: 253 nM
